US20240270821A1, “GIP/GLP1/GCG TRI-RECEPTOR AGONISTS AND USES THEREOF” (priority 2023, published 2024)
Starred links: 1 amine or outer side, 2 acyl side, 3 side chain; linkers in the order of their positions; H or OH if unused. Non-standard residues stand in square brackets, D forms with d. Groups on a side chain read outwards from the residue. No end group written: not given here. *: point of attachment. C18 diacid = O=C(O)CCCCCCCCCCCCCCCCC(=O)*; γGlu = O=C(O)[C@H](CCC(=O)[*:2])N[*:1]; 4Pal = N[C@@H](Cc1ccncc1)C(=O)O; αMeL = CC(C)C[C@](C)(N)C(=O)O; Dab = NCC[C@H](N)C(=O)O; Dap = NC[C@H](N)C(=O)O; AEEA = NCCOCCOCC(=O)O; Aib = CC(C)(N)C(=O)O

Legend:
Assay in all cases: cell-based or functional assay
[1] = biological target: T1, human GIP receptor (human) (UniProt P48546)
T1 sequence (looked up): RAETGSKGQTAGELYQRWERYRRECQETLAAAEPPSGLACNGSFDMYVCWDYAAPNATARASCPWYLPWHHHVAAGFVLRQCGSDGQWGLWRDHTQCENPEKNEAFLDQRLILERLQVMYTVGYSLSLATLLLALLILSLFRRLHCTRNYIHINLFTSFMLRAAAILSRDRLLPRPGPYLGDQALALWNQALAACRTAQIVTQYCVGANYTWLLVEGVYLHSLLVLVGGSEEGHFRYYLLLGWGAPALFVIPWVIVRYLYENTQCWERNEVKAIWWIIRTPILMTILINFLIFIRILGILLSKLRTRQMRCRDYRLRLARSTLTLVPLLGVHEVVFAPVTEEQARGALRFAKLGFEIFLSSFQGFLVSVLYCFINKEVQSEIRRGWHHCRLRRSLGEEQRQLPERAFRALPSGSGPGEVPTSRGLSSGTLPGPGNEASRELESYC

hGLP-1R = hGLP-1R (Homo sapiens, UniProt P43220)
[2] = biological target: human glucagon receptor (human) (UniProt P47871)
Chain of human glucagon receptor (human) (P47871 26-477): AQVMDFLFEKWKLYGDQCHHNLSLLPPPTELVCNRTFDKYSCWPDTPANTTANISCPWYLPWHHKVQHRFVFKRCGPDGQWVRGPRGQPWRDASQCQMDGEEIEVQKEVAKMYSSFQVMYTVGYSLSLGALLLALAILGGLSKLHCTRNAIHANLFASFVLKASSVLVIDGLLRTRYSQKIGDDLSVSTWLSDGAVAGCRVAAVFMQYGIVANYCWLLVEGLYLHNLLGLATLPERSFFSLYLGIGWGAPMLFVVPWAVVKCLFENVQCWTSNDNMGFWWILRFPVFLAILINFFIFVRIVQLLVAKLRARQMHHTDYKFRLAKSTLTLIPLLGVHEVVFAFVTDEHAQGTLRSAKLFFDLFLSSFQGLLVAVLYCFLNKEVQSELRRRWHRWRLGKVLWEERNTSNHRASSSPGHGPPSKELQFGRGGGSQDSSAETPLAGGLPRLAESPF

Chain of hGLP-1R (P43220 24-463): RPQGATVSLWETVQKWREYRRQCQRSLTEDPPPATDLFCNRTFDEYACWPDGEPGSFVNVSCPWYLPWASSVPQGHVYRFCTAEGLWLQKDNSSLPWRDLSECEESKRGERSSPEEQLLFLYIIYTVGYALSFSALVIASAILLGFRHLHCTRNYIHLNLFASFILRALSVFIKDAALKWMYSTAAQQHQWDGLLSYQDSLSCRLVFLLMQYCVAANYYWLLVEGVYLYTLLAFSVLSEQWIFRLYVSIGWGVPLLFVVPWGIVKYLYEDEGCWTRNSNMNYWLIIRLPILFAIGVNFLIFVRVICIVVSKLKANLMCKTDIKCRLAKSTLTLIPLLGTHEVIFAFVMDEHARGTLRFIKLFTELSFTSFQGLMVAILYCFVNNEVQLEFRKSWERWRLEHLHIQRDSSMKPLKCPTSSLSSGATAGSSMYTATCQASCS

Binder	Relative cAMP EC50 [1]	Relative cAMP EC50 (hGLP-1R)	Relative cAMP EC50 [2]	cAMP Rel EC50, nM (1% HSA) [1]	cAMP Rel EC50, nM (1% HSA) (hGLP-1R)	cAMP Rel EC50, nM (1% HSA) [2]
YXQGTXTSDXSILLDKKAQXAFIEXLEEGGPSSGAPPPSGSGE (synthetic construct; SITE 2: note = 2-Aminoisobutyric Acid; SITE 6: note = alpha-methyl-2-fluoro-L-phenylalanine; SITE 10: note = 3-(4-Pyridyl)-L-alanine; SITE 17: note = Lysine is chemically modified through conjugation of the epsilon-amino group of the Lysine side chain with (gamma-Glu)2-CO-(CH2)1) [Example 666 (SEQ ID NO: 672)]	0.0203 nM	0.337 nM	2 nM	–	–	–
YXQGTXTSDXXIXLDXKAAXEFIEXLLEGGPSSGAPPPSGS (synthetic construct; SITE 2: note = 2-Aminoisobutyric Acid; SITE 6: note = alpha-methyl-2-fluoro-L-phenylalanine; SITE 10: note = 3-(4-Pyridyl)-L-alanine; SITE 11: note = alpha-methyl-L-serine; SITE 13: note = alpha-methyl-leucine; SITE 16: note = L-ornithine; SITE 17: note = Lysine is chemically mo) [Example 672 (SEQ ID NO: 678)]	0.014 nM	0.389 nM	1.19 nM	–	–	–
YXQGTXTSDXXIXLDXKAAXEFIEXLVEGGPSSGAPPPSGS (synthetic construct; SITE 2: note = 2-Aminoisobutyric Acid; SITE 6: note = alpha-methyl-2-fluoro-L-phenylalanine; SITE 10: note = 3-(4-Pyridyl)-L-alanine; SITE 11: note = alpha-methyl-L-serine; SITE 13: note = alpha-methyl-leucine; SITE 16: note = L-ornithine; SITE 17: note = Lysine is chemically mo) [Example 693 (SEQ ID NO: 699)]	0.0104 nM	0.161 nM	2.39 nM	–	–	–
YXQGTXTSDXXIXLDXKAAXEFIEXLVEGGPSSGEPPPSGS (synthetic construct; SITE 2: note = 2-Aminoisobutyric Acid; SITE 6: note = alpha-methyl-2-fluoro-L-phenylalanine; SITE 10: note = 3-(4-Pyridyl)-L-alanine; SITE 11: note = alpha-methyl-L-serine; SITE 13: note = alpha-methyl-leucine; SITE 16: note = L-ornithine; SITE 17: note = Lysine is chemically mo) [Example 695 (SEQ ID NO: 701)]	0.0136 nM	0.254 nM	1.93 nM	–	–	–
YXQGTXTSDXSIXLDXKAQXXFIEXLIEGGPSSGEPPPSGE (synthetic construct; SITE 2: note = 2-Aminoisobutyric Acid; SITE 6: note = alpha-methyl-2-fluoro-L-phenylalanine; SITE 10: note = 3-(4-Pyridyl)-L-alanine; SITE 13: note = alpha-methyl-leucine; SITE 16: note = L-ornithine; SITE 17: note = Lysine is chemically modified through conjugation of the epsil) [Example 682 (SEQ ID NO: 688)]	0.00661 nM	0.212 nM	1.91 nM	–	–	–
YXQGTXTSDXSIXLDKKAQXXFIEYLTEGGPSSGEPPPEGSEE (synthetic construct; SITE 2: note = 2-Aminoisobutyric Acid; SITE 6: note = alpha-methyl-2-fluoro-L-phenylalanine; SITE 10: note = 3-(4-Pyridyl)-L-alanine; SITE 13: note = alpha-methyl-leucine; SITE 17: note = Lysine is chemically modified through conjugation of the epsilon-amino group of the Lysine) [Example 652 (SEQ ID NO: 658)]	0.0342 nM	0.426 nM	15.3 nM	–	–	–
YXQGTXTSDXSIXLDKKAQXXFIEYLQEGGPSSGEPPPEGSEE (synthetic construct; SITE 2: note = 2-Aminoisobutyric Acid; SITE 6: note = alpha-methyl-2-fluoro-L-phenylalanine; SITE 10: note = 3-(4-Pyridyl)-L-alanine; SITE 13: note = alpha-methyl-leucine; SITE 17: note = Lysine is chemically modified through conjugation of the epsilon-amino group of the Lysine) [Example 653 (SEQ ID NO: 659)]	0.0303 nM	0.426 nM	7.29 nM	–	–	–
YXQGTXTSDXSILLDKKAQXAFIEYLEEGGPSSGAPPPEGTE (synthetic construct; SITE 2: note = 2-Aminoisobutyric Acid; SITE 6: note = alpha-methyl-2-fluoro-L-phenylalanine; SITE 10: note = 3-(4-Pyridyl)-L-alanine; SITE 17: note = Lysine is chemically modified through conjugation of the epsilon-amino group of the Lysine side chain with (gamma-Glu)2-CO-(CH2)1) [Example 659 (SEQ ID NO: 665)]	0.0673 nM	1.31 nM	5.89 nM	–	–	–
YXQGTFTSDXSQXLDKKAQXAFIEYLIEXGPSSGAPPPSGSGE (not fully specified; possible C-terminal amide; synthetic construct; SITE 2: note = 2-Aminoisobutyric Acid; SITE 10: note = 3-(4-Pyridyl)-L-alanine; SITE 13: note = alpha-methyl-leucine; SITE 17: note = Lysine is chemically modified through conjugation of the epsilon-amino group of the Lysine side chain with (gamma-Glu)2-CO-(CH2)16-CO2H; SITE 20:) [Example 891]	0.155 nM	3.25 nM	3.14 nM	–	–	–
YXQGTFTSDXSQXLDXKAQXAFIEXLIAXGPSSGAPPPSGSEE (non-natural residues, acylated Lys, C-terminal amide; synthetic construct; SITE 2: note = 2-Aminoisobutyric Acid; SITE 10: note = 3-(4-Pyridyl)-L-alanine; SITE 13: note = alpha-methyl-leucine; SITE 16: note = L-ornithine; SITE 17: note = Lysine is chemically modified through conjugation of the epsilon-amino group of the Lysine side chain with (2-[2-(2-) [Example 1110]	0.059 nM	0.508 nM	5.91 nM	–	–	–
YXQGTFTSDXSQXLDXKAQXAFIEXLIAXGPSSGAPPPSGSEE (non-natural residues, lipidated Lys, C-terminal amide; synthetic construct; SITE 2: note = 2-Aminoisobutyric Acid; SITE 10: note = 3-(4-Pyridyl)-L-alanine; SITE 13: note = alpha-methyl-leucine; SITE 16: note = L-ornithine; SITE 17: note = Lysine is chemically modified through conjugation of the epsilon-amino group of the Lysine side chain with (gamma-Gl)) [Example 1107]	0.0447 nM	0.51 nM	5.66 nM	–	–	–
YXQGTFTSDXSXXLDKKAQXAFIEXLLEGGPSSGAPPPSGSEE (synthetic construct; SITE 2: note = 2-Aminoisobutyric Acid; SITE 10: note = 3-(4-Pyridyl)-L-alanine; SITE 12: note = L-ornithine; SITE 13: note = alpha-methyl-leucine; SITE 17: note = Lysine is chemically modified through conjugation of the epsilon-amino group of the Lysine side chain with (gamma-Gl)) [Example 944]	0.216 nM	4.86 nM	6.16 nM	–	–	–
YXQGTFTSDXSQXLDKKAQXAFIEXLLEGGPSSGAPPPSGSEE (synthetic construct; SITE 2: note = 2-Aminoisobutyric Acid; SITE 10: note = 3-(4-Pyridyl)-L-alanine; SITE 13: note = alpha-methyl-leucine; SITE 17: note = Lysine is chemically modified through conjugation of the epsilon-amino group of the Lysine side chain with (gamma-Glu)2-CO-(CH2)16-CO2H; SITE 20:) [Example 945]	0.246 nM	3.9 nM	18 nM	–	–	–
YXQGTFTSDXSQXLDXKAQXAFIEXLIEXGPSSGAPPPSGSEE (non-natural residues; C18 diacid-γGlu-AEEA on Lys; C-terminal amide; synthetic construct; SITE 2: note = 2-Aminoisobutyric Acid; SITE 10: note = 3-(4-Pyridyl)-L-alanine; SITE 13: note = alpha-methyl-leucine; SITE 16: note = L-ornithine; SITE 17: note = Lysine is chemically modified through conjugation of the epsilon-amino group of the Lysine side chain with (2-[2-(2-) [Example 1108]	0.0507 nM	0.752 nM	4.96 nM	–	–	–
YXQGTFTSDXSQXLDXKAQXAFIEXLLEGGPSSGAPPPSGSEE (synthetic construct; SITE 2: note = 2-Aminoisobutyric Acid; SITE 10: note = 3-(4-Pyridyl)-L-alanine; SITE 13: note = alpha-methyl-leucine; SITE 16: note = L-ornithine; SITE 17: note = Lysine is chemically modified through conjugation of the epsilon-amino group of the Lysine side chain with (gamma-Gl)) [Example 946]	0.353 nM	2.05 nM	16.5 nM	–	–	–
YXQGTFTSDXSQXLDXKAQXAFIEYLIEXGPSSGAPPPSGSEE (synthetic construct; SITE 2: note = 2-Aminoisobutyric Acid; SITE 10: note = 3-(4-Pyridyl)-L-alanine; SITE 13: note = alpha-methyl-leucine; SITE 16: note = L-ornithine; SITE 17: note = Lysine is chemically modified through conjugation of the epsilon-amino group of the Lysine side chain with (gamma-Gl)) [Example 937]	0.222 nM	2.52 nM	5.52 nM	–	–	–
YXQGTFTSDXSQXLDXKAQXQFIEXLIEXGPSSGAPPPSGSEE (Aib, 4Pal, αMeL, Orn, Me4Pal, αMeY; acylated lysine; amide; synthetic construct; SITE 2: note = 2-Aminoisobutyric Acid; SITE 10: note = 3-(4-Pyridyl)-L-alanine; SITE 13: note = alpha-methyl-leucine; SITE 16: note = L-ornithine; SITE 17: note = Lysine is chemically modified through conjugation of the epsilon-amino group of the Lysine side chain with (2-[2-(2-) [Example 1109]	0.0626 nM	2.3 nM	10.8 nM	–	–	–
Y[Aib]QGTFTSDFS[Dap][αMeL]LDKK([γGlu-γGlu-C18 diacid])AQ[Aib]AFIEYLLE[Aib]GPSSGAPPPSGS-NH2 [Example 203]	–	–	–	19 nM	532 nM	1160 nM
Y[Aib]QGTFTSD[4Pal]S[Dab][αMeL]LDKK([AEEA-γGlu-C18 diacid])AQ[Aib]AFIEYLIE[Aib]GPSSGAPPPSGS-NH2 [Example 803]	0.232 nM	2.02 nM	9.75 nM	–	–	–
